Consider 3 molecules from patent US9981050B2, “Bispecific peptide conjugate and radioactive bispecific peptide imaging agent” (Institute of Nuclear Energy Research, Atomic Energy …, priority 2015, dated 2018).

Where two headings read alike, the source gives them in different places.

A short description of data set [1]: PET/CT imaging in NCI-H292 tumor bearing nude mice. It is filed as in vivo. The conditions noted are these: mouse, iv, subcutaneous NCI-H292 tumor, 11 MBq via tail vein, 2 hours post-injection, PET/CT quantified by PMODE, read-out: tumor/muscle ratio (T/M ratio). Here is the method: In this example, the bispecific peptide conjugate (that is, ^68Ga-NOTA-RGD-GE11) tagged with a radioactive isotope prepared in Example 2 was tested and was compared with monospecific peptide conjugate ^68Ga-NOTA-GE11. The right thigh of nude mice was subcutaneously inoculated with 5×10^6 NCI-H292 tumor cells. The tumors were allowed to grow for about 4 weeks until the tumor size reached 0.5 cm diameter. Then, the animals were anesthetized with isoflorane, injected with 11 MBq ^68Ga-NOTA-RGD-GE11 or ^68Ga-NOTA-GE11 (0.1 mL) via the tail vein, and imaged for 2 hours by Positron Emission Tomography/Computed Tomography (PET/CT). The images were quantified by using PMODE Software.

For data set [2], the target named is T1, EGFR in A549 tumor cells (Homo sapiens, UniProt P00533).
T1 construct: endogenous in cells; host or cells: A549 tumor cells
Briefly: Specific binding assay: inhibition of anti-EGFR antibody binding to A549 tumor cells. In kind it is cell-based. The following applies: various concentrations, 2 hrs, absorbance decreases with increasing concentration. Here is the method: (§1) In this example, the bispecific peptide conjugate (that is, NOTA-c(RGDyk)-cys-6-ahx-GE11) prepared in Example 1 was assayed.
(§2) A549 tumor cells were plated in a 96-well plate (5×10^4 cells/well). Various concentrations of NOTA-c(RGDyk)-cys-6-ahx-GE11 and anti-EGFR antibody or anti-integrin αV antibody were added and reacted for 2 hrs. Then, a secondary antibody and ABTS were added and reacted for 8 hrs. The antibody binding was assayed by a fluorimeter.

Data set [3] deals with T2, integrin αV in A549 tumor cells (Homo sapiens, UniProt P05106+P06756).
T2 construct: endogenous in cells; host or cells: A549 tumor cells
T2 sequence (P06756 31-889 limits assumed): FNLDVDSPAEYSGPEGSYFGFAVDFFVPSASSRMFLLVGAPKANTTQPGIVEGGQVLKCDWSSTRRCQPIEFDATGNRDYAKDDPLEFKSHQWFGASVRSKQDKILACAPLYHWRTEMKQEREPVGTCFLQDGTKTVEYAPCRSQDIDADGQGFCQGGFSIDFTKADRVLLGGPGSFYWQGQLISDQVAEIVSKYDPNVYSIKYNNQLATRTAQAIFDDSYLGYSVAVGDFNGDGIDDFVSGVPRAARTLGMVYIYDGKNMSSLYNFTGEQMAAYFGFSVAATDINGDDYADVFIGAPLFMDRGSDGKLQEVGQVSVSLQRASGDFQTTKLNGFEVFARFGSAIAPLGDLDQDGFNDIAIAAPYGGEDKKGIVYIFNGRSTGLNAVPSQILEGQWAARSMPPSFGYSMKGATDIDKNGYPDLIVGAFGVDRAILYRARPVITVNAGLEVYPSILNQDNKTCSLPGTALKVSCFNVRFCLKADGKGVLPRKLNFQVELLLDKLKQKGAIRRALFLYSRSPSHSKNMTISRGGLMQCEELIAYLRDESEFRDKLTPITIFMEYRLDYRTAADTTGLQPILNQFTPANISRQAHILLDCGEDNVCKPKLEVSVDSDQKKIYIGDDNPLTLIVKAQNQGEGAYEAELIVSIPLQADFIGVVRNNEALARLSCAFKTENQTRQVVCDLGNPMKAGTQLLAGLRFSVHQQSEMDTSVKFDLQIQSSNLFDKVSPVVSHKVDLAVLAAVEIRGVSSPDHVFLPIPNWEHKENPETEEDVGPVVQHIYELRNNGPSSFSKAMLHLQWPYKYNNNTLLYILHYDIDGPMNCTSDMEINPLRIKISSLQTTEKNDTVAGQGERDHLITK
T2 sequence (P06756 891-1048 partner limits assumed): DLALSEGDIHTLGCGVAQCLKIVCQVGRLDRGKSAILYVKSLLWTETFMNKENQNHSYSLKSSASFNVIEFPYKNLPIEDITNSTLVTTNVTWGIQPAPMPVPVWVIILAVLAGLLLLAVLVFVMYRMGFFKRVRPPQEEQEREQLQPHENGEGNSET
T2 sequence (P05106 27-788): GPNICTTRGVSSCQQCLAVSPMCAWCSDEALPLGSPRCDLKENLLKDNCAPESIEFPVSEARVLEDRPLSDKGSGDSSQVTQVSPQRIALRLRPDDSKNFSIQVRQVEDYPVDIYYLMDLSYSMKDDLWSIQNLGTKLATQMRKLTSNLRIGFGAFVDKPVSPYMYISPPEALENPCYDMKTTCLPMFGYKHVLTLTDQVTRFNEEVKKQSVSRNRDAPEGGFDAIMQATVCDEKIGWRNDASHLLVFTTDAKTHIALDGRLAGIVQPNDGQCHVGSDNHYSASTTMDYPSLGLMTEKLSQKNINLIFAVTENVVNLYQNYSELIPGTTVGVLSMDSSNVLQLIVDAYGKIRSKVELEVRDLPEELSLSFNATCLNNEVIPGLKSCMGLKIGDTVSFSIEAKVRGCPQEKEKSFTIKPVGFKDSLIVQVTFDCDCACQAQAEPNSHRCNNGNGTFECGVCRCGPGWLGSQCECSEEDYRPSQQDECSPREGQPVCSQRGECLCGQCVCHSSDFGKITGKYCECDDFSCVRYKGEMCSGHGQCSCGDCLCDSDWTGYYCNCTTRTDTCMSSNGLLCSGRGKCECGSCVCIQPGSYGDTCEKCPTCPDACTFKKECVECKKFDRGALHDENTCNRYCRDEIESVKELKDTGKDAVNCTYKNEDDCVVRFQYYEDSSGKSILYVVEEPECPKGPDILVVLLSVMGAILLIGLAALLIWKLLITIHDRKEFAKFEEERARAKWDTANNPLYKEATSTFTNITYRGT
The experiment in a line: Specific binding assay: inhibition of anti-integrin αV antibody binding to A549 tumor cells. The conditions noted are these: various concentrations, 2 hrs, absorbance decreases with increasing concentration. It is filed as cell-based. Here is the method:
as §1, §2

Regarding `CC[C@H](C)[C@H](NC(=O)[C@@H](NC(=O)[C@H](CC(N)=O)NC(=O)[C@H](CCC(N)=O)NC(=O)[C@@H]1CCCN1C(=O)[C@@H](NC(=O)[C@H](Cc1ccc(O)cc1)NC(=O)CNC(=O)[C@H](Cc1ccc(O)cc1)NC(=O)[C@H](Cc1c[nH]c2ccccc12)NC(=O)[C@H](Cc1c[nH]cn1)NC(=O)[C@H](Cc1ccc(O)cc1)NC(=O)CCCCCNC(=O)[C@H](CS)NC(=O)CN1CCN(CC(=O)O)CCN(CC(=O)O)CC1)[C@@H](C)O)C(C)C)C(=O)O` [^68Ga-NOTA-GE11, metal not drawn, reference compound], the tissue to tissue ratio at 2 h in data set [1] (in vivo) came out at 1.87.
In the case of `CC[C@H](C)[C@H](NC(=O)[C@@H](NC(=O)[C@H](CC(N)=O)NC(=O)[C@H](CCC(N)=O)NC(=O)[C@@H]1CCCN1C(=O)[C@@H](NC(=O)[C@H](Cc1ccc(O)cc1)NC(=O)CNC(=O)[C@H](Cc1ccc(O)cc1)NC(=O)[C@H](Cc1c[nH]c2ccccc12)NC(=O)[C@H](Cc1c[nH]cn1)NC(=O)[C@H](Cc1ccc(O)cc1)NC(=O)CCCCCNC(=O)[C@H](CSC1CC(=O)N(CCC(=O)NCCCC[C@@H]2NC(=O)[C@@H](Cc3ccc(O)cc3)NC(=O)[C@H](CC(=O)O)NC(=O)CNC(=O)[C@H](CCCNC(=N)N)NC2=O)C1=O)NC(=O)CN1CCN(CC(=O)O)CCN(CC(=O)O)CC1)[C@@H](C)O)C(C)C)C(=O)O` (stereo partly shown) [^68Ga-NOTA-RGD-GE11, metal not drawn], the tissue to tissue ratio at 2 h in data set [1] (tumor / muscle, total radioactivity) was 4.31.
For the molecule NOTA-c(RGDyk)-cys-6-ahx-GE11, the “inhibition of the binding of the anti-EGFR antibody to tumor cells” value in data set [2] is on record as “can effectively inhibit the binding”. For the same molecule, the “inhibition of the binding of the anti-integrin αV antibody to tumor cells” value in data set [3] is “can effectively inhibit the binding”.
